What is called % inhibition is the drop in the measured response relative to a control, in per cent. A word on the Km: it is the substrate concentration at which the rate is half of its maximum. One may read the Vmax as the rate approached at saturating substrate. What is called kcat is the maximal rate divided by the concentration of active sites.

The target in data set [1] is T1, MapADO (Moesziomyces aphidis, UniProt W3VHW6).
T1 construct: gene PaG_05861
T1 sequence (W3VHW6 2-548): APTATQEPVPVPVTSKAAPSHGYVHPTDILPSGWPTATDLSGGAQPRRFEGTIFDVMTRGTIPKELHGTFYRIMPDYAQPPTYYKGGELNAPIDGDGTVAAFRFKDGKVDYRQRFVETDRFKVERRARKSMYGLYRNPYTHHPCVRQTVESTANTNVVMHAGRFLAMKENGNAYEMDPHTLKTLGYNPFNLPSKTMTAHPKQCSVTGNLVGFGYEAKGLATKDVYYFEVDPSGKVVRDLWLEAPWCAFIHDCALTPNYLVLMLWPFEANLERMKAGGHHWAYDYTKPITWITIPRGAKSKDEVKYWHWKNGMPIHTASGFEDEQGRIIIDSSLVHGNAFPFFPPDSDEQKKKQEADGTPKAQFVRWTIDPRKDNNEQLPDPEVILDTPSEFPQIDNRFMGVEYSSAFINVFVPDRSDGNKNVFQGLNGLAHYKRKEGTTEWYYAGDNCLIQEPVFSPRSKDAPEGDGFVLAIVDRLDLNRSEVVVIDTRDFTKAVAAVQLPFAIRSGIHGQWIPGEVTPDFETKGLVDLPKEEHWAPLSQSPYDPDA
The data set can be described thus: inhibition of isoeugenol conversion. It counts as cell-based. The settings on record: equimolar to isoeugenol; enzyme preparation not stated in main text; suggested competitive.

Data set [2] concerns the target T1, MapADO. The data set can be described thus: X-ray crystal structure (cocrystallization). In kind it is binding. The settings on record: 40-fold molar excess ligand; front pocket at Fe2+.
Data set [3] has as its target T1, MapADO. The data set can be described thus: inhibition of isoeugenol conversion. In kind it is cell-based. The following applies: equimolar to isoeugenol; enzyme preparation not stated in main text.
Substrate in data set [4]: CC=Cc1ccc(O)c(OC)c1
Kind of data set: spectrophotometric monitoring of vanillin formation. In kind it is biochemical, Moesziomyces aphidis. The settings on record: co-substrate O2; Fe2+ enzyme. The source says: spectrophotometric monitoring of vanillin formation on MapADO

Substrate in data set [5]: CC=Cc1ccc(O)c(OC)c1
Described as above. In kind it is biochemical, Thermothelomyces thermophilus. The following applies: co-substrate O2; Fe2+ enzyme. The source says:
spectrophotometric monitoring of vanillin formation on ADO (TtCCO)

`COc1cccc(C=O)c1O` [compound 5, ortho-vanillin]: the “% inhibition” value at MapADO [1] was determined as 25%.

As for `COc1cc(C=O)ccc1O` [compound 1, vanillin], the “X-ray crystal structure (cocrystallization)” value at MapADO [2] was “In the 1-bound structure (PDB ID: 9G89), interactions include hydrophobic contacts”. Moreover, the “% reduction of 1a conversion” value on MapADO [3] is 60%.

For `O=Cc1ccc(O)cc1` [compound 3, 4-hydroxybenzaldehyde], on MapADO [2], the “X-ray crystal structure (cocrystallization)” value was “The 3-bound structure (PDB ID: 9G8A) shows similar hydrophobic interactions and hydrogen bonds”.

B1: MapADO (Moesziomyces aphidis) (protein)
chain: T1 sequence (W3VHW6 2-548)
B1: in data set [4], the Km was determined as 118 ± 13 µM, the Vmax amounted to 231 µmol/min/mg and the kcat is 238 s⁻¹.

B2: ADO (TtCCO) (Thermothelomyces thermophilus ATCC 42464) (protein)
chain: MAHIHDLAPEVSNYSSGRLTPPTPVRFPRTPVFASMNKPCRFEGDVFDLEVSGAIPPDIDGTFFRVQPDHRFPPLFEDDIHFNGDGSVTAIRISGGHADLRQRYVRTERYLLETRARRSLFGRYRNPWTDNESVRGVIRTASNTNVVFWRGALLAMKEDGPPFAMDPVTLETLGRYDFEGQILSPTFTAHPKIDPDTGEMVCFAYEAGGDGSDCSVDVAVWTVDADGKKVEECWYKAPFAGMIHDCGITKNWVVLPLTPIKMDLERMKRGGNKFAWDPSEDQWYGVVPRRGAKSDDIIWFRADNGFHGHVAGCYELPSGEIVFDLTVADGNVFFFFPPDDNITPPADGVAKRNRLSSPTVRWIFDPKAKKSAIRTEAAGDADIWVADERVKPALTWPTNGEFSRIDDRYVTKPYRHFWQAVVDPTRPYDFEKCGPPAGGLFNCLGHYTWSDQNYHHGHNTGDPSGDGRSNGSAEEATAGKFGLQDVYFAGPTMTFQEPTFIPRQGAAEGEGYLIALLNHLDELRNDVVIFEARNLGKGPLAVIHLPLKLKLGLHGNWVDSREIEAWRRRRAENGDVGPLRVAKEPLPWQKKFAAAAQNGSNGV
notes: purified recombinant; construct details not given; genus given only as T
With B2, in data set [5], the Km was 2240 ± 264 µM, the Vmax was determined as 43 µmol/min/mg and the kcat was found to be 44 s⁻¹.

Source of the values: article PMC12308385, “Structural and Functional Characteristics of Potent Dioxygenase from Moesziomyces aphidis” (JACS Au, 2025).
